In article PMC12756002, “Mutations in Hsp40 co-chaperone change the canonical interdomain interactions stimulating LGMDD1 myopathy” (The Journal of Biological Chemistry, 2025):

B1: Ssa1-WT (natural protein)
chain: not shown
notes: Ssa1, yeast Hsp70; Cloned into pPROEx-Htb; cleavage of the tag follows from 'the remaining purification steps were analogous to those for Sis1-WT'; also called Hsp70; source: E. coli Rosetta 2(DE3), purified (Talon resin, steps analogous to Sis1)

Key:
Details in all cases: both partners purified
[1] = molecular target: T1, Sis1-N56L premixed with denatured Rnq1 (yeast, UniProt P25294 1-352; P25367 1-405, N56L); assay: ELISA; denatured Rnq1 premixed with Sis1-WT or mutants (5 nM), 1 h room temperature, adsorbed onto wells; dilutions of Ssa1-WT (0-20 nM); bound Ssa1 detected with an anti-Ssa1 (Hsp70) antibody
T1 construct: also called Sis1-FLRnq1 complex (N56L)
T1 sequence (looked up) 1: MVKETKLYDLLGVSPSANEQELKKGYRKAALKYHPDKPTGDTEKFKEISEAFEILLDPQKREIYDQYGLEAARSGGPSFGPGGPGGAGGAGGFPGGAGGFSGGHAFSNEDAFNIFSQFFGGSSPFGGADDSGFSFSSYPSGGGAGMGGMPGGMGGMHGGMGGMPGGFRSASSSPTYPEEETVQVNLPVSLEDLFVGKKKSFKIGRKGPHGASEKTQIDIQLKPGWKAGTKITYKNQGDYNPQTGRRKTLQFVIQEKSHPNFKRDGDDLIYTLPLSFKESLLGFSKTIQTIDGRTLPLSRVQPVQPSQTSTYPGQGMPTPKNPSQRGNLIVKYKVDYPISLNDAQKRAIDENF
T1 sequence (looked up) 2: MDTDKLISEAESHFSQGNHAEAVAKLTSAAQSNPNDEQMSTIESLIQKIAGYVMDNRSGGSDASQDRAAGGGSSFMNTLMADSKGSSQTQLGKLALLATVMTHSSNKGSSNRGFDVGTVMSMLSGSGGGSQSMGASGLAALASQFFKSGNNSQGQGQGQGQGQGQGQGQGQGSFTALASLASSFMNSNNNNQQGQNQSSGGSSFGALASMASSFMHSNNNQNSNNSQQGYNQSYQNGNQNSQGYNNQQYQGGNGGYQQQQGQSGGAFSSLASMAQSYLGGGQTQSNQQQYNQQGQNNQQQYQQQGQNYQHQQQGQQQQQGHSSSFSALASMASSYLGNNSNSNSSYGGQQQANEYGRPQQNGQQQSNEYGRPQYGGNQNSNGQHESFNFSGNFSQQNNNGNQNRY

[2] = molecular target: T2, Sis1-E53A premixed with denatured Rnq1 (yeast, UniProt P25294 1-352; P25367 1-405, E53A); assay: as above
T2 construct: also called Sis1-FLRnq1 complex (E53A)
T2 sequence (looked up) 1: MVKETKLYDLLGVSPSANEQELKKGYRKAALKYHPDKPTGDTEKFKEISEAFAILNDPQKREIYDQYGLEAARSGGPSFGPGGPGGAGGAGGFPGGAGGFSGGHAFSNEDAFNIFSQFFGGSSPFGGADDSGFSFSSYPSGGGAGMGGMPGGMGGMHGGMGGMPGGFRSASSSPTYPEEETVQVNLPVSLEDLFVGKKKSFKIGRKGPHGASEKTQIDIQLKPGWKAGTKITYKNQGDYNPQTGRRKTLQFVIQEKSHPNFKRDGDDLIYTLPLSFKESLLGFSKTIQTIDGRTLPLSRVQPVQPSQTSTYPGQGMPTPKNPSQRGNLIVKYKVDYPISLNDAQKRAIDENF
T2 sequence (looked up) 2: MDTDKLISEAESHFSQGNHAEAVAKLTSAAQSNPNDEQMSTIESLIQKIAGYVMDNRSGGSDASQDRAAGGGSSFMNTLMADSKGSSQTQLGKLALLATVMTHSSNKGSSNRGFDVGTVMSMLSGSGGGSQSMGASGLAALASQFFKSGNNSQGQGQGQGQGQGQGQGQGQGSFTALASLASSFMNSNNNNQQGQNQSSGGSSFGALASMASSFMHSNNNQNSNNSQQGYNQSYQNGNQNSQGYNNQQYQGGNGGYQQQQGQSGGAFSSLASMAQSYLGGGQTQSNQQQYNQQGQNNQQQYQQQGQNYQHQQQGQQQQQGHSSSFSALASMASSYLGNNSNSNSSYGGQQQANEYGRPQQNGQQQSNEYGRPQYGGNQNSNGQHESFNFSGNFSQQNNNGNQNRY

[3] = molecular target: T3, Sis1-S49V premixed with denatured Rnq1 (yeast, UniProt P25294 1-352; P25367 1-405, S49V); assay: as above
T3 construct: also called Sis1-FLRnq1 complex (S49V)
T3 sequence (looked up) 1: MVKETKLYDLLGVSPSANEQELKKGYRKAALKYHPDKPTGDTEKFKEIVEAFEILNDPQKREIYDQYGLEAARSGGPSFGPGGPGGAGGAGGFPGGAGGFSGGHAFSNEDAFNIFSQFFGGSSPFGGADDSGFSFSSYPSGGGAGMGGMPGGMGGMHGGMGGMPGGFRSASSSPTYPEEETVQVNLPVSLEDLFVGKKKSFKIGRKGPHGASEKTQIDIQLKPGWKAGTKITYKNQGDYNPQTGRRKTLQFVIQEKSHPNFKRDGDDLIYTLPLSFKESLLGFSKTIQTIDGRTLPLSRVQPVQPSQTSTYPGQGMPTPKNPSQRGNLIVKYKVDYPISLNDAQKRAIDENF
T3 sequence (looked up) 2: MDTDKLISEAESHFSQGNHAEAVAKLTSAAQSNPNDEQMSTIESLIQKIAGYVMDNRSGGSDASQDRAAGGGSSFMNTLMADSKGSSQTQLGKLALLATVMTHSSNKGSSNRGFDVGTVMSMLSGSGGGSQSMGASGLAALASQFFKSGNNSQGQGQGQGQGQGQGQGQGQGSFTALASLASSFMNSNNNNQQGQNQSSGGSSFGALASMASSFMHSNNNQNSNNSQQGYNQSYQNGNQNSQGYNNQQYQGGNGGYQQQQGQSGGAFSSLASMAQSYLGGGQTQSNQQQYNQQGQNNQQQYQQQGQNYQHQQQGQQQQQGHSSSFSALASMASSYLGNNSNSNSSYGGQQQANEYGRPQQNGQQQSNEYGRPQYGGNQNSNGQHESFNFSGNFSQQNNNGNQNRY

[4] = molecular target: T4, Sis1-FLRnq1 complex (Sis1-WT premixed with denatured Rnq1) (yeast, UniProt P25294 1-352; P25367 1-405); assay: as above
T4 construct: also called Sis1-WT with client protein Rnq1
T4 sequence (looked up) 1: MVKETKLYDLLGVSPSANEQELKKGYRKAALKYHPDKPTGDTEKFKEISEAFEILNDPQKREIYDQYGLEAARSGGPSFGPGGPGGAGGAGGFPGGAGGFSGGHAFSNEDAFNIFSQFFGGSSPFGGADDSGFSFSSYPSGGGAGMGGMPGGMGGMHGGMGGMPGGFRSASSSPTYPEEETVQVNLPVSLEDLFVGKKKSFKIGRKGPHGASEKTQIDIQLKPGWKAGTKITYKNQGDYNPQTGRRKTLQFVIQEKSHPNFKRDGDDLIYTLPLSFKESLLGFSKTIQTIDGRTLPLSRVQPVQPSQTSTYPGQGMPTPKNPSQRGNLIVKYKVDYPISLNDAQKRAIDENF
T4 sequence (looked up) 2: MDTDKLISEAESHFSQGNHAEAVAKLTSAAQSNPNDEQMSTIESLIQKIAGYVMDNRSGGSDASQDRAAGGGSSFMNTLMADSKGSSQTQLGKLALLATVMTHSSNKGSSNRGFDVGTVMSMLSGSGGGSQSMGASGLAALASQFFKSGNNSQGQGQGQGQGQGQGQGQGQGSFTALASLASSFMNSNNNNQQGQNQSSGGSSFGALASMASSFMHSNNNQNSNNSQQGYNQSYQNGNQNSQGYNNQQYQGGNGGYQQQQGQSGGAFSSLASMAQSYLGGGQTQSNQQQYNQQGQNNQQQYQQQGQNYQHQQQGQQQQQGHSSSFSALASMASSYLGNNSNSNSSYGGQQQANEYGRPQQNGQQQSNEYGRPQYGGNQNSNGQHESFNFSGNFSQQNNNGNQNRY

[5] = molecular target: T5, Sis1-E53K premixed with denatured Rnq1 (yeast, UniProt P25294 1-352; P25367 1-405, E53K); assay: as above
T5 construct: also called Sis1-FLRnq1 complex (E53K)
T5 sequence (looked up) 1: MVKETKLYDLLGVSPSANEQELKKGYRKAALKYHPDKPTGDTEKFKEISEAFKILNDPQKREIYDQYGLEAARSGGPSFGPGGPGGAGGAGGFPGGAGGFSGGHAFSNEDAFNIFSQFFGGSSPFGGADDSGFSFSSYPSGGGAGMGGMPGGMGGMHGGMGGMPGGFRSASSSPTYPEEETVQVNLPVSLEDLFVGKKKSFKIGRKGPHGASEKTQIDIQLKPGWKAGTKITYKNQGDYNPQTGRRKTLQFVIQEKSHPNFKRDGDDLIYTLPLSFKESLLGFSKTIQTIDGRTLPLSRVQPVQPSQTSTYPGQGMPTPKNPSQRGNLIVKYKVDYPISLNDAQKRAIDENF
T5 sequence (looked up) 2: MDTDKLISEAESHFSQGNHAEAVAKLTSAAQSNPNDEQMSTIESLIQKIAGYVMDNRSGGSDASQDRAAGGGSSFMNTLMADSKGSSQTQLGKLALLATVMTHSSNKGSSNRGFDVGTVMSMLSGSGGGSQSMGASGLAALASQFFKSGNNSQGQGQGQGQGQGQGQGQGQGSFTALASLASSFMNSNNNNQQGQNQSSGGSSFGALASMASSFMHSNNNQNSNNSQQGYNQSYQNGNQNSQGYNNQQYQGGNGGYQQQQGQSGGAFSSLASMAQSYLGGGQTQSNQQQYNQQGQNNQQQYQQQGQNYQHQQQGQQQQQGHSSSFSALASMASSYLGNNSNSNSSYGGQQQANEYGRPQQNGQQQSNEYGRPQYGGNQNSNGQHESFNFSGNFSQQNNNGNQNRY

full-length Rnq1 = molecular target: T6, full-length Rnq1 (yeast, UniProt P25367 1-405); assay: ELISA; denatured substrate (FL Rnq1 or ΔN Rnq1 400 ng, luciferase 100 ng) immobilised in microtiter wells; dilutions of Sis1-WT or mutants (0-20 or 0-25 nM) in PBS-T with 0.5% BSA, overnight at room temperature; retained Sis1 detected with an anti-Sis1 antibody
T6 construct: also called FL Rnq1; Rnq1-WT
T6 sequence (looked up): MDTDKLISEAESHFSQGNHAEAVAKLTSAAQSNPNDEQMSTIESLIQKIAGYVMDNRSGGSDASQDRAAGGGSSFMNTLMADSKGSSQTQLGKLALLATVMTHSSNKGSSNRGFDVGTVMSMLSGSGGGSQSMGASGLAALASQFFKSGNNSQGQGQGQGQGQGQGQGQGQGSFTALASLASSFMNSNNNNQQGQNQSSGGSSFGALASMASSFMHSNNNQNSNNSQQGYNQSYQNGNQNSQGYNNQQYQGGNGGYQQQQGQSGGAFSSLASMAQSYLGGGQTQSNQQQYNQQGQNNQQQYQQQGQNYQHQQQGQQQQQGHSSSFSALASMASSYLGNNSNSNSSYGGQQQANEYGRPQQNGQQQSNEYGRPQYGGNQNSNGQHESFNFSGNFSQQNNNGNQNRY

Ssa1-WT = molecular target: B1; assay: ELISA; Ssa1 (200 nM) immobilised in microtiter wells; dilutions of Sis1-WT or mutants (0-50 nM); bound Sis1 detected with an anti-Sis1 antibody; no client
Sequence of Ssa1-WT (P10591 whole entry): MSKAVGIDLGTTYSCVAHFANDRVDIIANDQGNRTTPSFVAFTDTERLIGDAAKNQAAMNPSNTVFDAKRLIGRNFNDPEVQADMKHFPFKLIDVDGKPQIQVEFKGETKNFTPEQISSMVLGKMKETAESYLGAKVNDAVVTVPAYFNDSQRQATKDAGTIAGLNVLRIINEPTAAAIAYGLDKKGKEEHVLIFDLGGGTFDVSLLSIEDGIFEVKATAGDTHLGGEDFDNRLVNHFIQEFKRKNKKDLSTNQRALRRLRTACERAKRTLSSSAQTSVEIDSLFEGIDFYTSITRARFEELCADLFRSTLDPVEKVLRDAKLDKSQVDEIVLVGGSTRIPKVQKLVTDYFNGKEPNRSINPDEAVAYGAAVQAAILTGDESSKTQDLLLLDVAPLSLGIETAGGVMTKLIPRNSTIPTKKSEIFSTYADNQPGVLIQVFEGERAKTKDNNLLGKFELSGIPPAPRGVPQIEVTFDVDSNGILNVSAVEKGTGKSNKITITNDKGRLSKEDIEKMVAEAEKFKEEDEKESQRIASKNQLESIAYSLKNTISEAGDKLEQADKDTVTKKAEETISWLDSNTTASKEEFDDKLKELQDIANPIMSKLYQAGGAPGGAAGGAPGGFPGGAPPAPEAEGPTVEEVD

Measured: binding result

B1
binds: [1] | [2] | [3] | [4] | [5]

B2: Sis1-WT (natural protein, yeast, UniProt P25294 1-352, looked up)
chain: MVKETKLYDLLGVSPSANEQELKKGYRKAALKYHPDKPTGDTEKFKEISEAFEILNDPQKREIYDQYGLEAARSGGPSFGPGGPGGAGGAGGFPGGAGGFSGGHAFSNEDAFNIFSQFFGGSSPFGGADDSGFSFSSYPSGGGAGMGGMPGGMGGMHGGMGGMPGGFRSASSSPTYPEEETVQVNLPVSLEDLFVGKKKSFKIGRKGPHGASEKTQIDIQLKPGWKAGTKITYKNQGDYNPQTGRRKTLQFVIQEKSHPNFKRDGDDLIYTLPLSFKESLLGFSKTIQTIDGRTLPLSRVQPVQPSQTSTYPGQGMPTPKNPSQRGNLIVKYKVDYPISLNDAQKRAIDENF
notes: Sis1, essential yeast DNAJ (Hsp40) protein, homolog of human DNAJB6; Cloned into pPROEx-Htb (hexa-His-tag, TEV site); also called Hsp40; wild-type Sis1; source: E. coli Lemo21(DE3), purified (Talon cobalt resin, TEV cleavage, second Talon pass)
binds: full-length Rnq1 | Ssa1-WT

B3: Sis1-E53K (natural protein, yeast, UniProt P25294 1-352, looked up)
chain: MVKETKLYDLLGVSPSANEQELKKGYRKAALKYHPDKPTGDTEKFKEISEAFKILNDPQKREIYDQYGLEAARSGGPSFGPGGPGGAGGAGGFPGGAGGFSGGHAFSNEDAFNIFSQFFGGSSPFGGADDSGFSFSSYPSGGGAGMGGMPGGMGGMHGGMGGMPGGFRSASSSPTYPEEETVQVNLPVSLEDLFVGKKKSFKIGRKGPHGASEKTQIDIQLKPGWKAGTKITYKNQGDYNPQTGRRKTLQFVIQEKSHPNFKRDGDDLIYTLPLSFKESLLGFSKTIQTIDGRTLPLSRVQPVQPSQTSTYPGQGMPTPKNPSQRGNLIVKYKVDYPISLNDAQKRAIDENF
notes: Sis1, essential yeast DNAJ (Hsp40) protein, with the J-domain mutation E53K; also called homologous to DNAJB6-E54K; LGMDD1 J-domain mutant; source: E. coli Lemo21(DE3), purified (Talon cobalt resin, TEV cleavage, second Talon pass)
binds: full-length Rnq1 | Ssa1-WT
